The supplement of paper PMC7877785
± gives the uncertainty stated by the source.

Assay: self-splicing fitness, log relative to wild type (ln ratio); higher = more splicing; Tetrahymena group I intron in knt gene, E. coli kanamycin selection, DiMSum; sequences stand for … in CUCUCU…GGAGGGAAAAGUUAUCAGGCAUGCACCUGGUAGCUAGUCUUUAAACCAAUAGAUUGCAUCGGUUUAAAAGGCAAGACCGUCAAAUUGCGGGAAAGGGGUCAACAGCCGUUCAGUACCAAGUCUCAGGGGAAACUUUGAGAUGGCCUUGCAAAGGGUAUGGUAAUAAGCUGACGGACAUGGUCCUAACCACGCAGCCAAGUCCUAAGUCAACAGAUCUUCUGUUGAUAUGGAUGCAGUUCACAGACUAAAUGUCGGUCGGGGAAGAUGUAUUCUUCUCAUAAGAUAUAGUCGGACCUCUCCUUAAUGGGAGCUAGCGGAUGAAGUGAUGCAACACUGGAGCCGCUGGGAACUAAUUUGUAUGCGAAAGUAUAUUGAUUAGUUUUGGAGUACUCGUGGUCG
In short: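 DiMSum derived fitness as the error-weighted combination of fold changes across replicates, kanamycin versus no kanamycin, normalised to wild type. E. coli BL21(DE3) held the library, which randomised all eight P1ex-region intron nucleotides within the knt kanamycin-resistance gene on pET-22b(+). Six replicate transformations grew overnight at 37°C or 30°C on LB agar with or without 25 μg/mL kanamycin, also containing 100 μg/mL carbenicillin, 50 μM IPTG and 0.2% rhamnose, and pooled colonies were amplicon-sequenced on an Illumina HiSeq 2500.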

| Sequence | self-splicing fitness (ln) (30 °C) | self-splicing fitness (ln) (37 °C) |
| --- | --- | --- |
| AAGUAGCAAUAUUACGAGUA | -1.79 ± 0.15 | -1.86 ± 0.18 |
| AAGUAGCAAUAUUACGAUUG | -3.24 ± 0.28 | -0.999 ± 0.22 |
| AAGUAGCAAUAUUACGCAAC | -3.33 ± 0.25 | -2.87 ± 0.35 |
| AAGUAGCAAUAUUACGCAAG | -1.81 ± 0.17 | 0.657 ± 0.18 |
| AAGUAGCAAUAUUACGCCCC | -1.1 ± 0.19 | -1.22 ± 0.22 |
| AAGUAGCAAUAUUACGCCGG | -3.7 ± 0.3 | -1.59 ± 0.18 |
| AAGUAGCAAUAUUACGCUGU | -3.66 ± 0.25 | -1.87 ± 0.14 |
| AAGUAGCAAUAUUACGGAAC | -1.4 ± 0.49 | -1.46 ± 0.25 |
| AAGUAGCAAUAUUACGGAAG | -2.96 ± 0.19 | -2.44 ± 0.37 |
| AAGUAGCAAUAUUACGGAUU | -0.677 ± 0.092 | -0.751 ± 0.11 |
| AAGUAGCAAUAUUACGGCCA | -0.679 ± 0.095 | 0.256 ± 0.11 |
| AAGUAGCAAUAUUACGGGAC | -2.43 ± 0.11 | -2.83 ± 0.21 |
| AAGUAGCAAUAUUACGGGCG | -1.71 ± 0.11 | -1.53 ± 0.14 |
| AAGUAGCAAUAUUACGGGGA | -2.42 ± 0.18 | -1.74 ± 0.17 |
| AAGUAGCAAUAUUACGGGUU | -1.46 ± 0.13 | -1.55 ± 0.17 |
| AAGUAGCAAUAUUACGUCAC | -3.26 ± 0.15 | -3.73 ± 0.22 |
| AAGUAGCAAUAUUACGUUAC | -3.59 ± 0.3 | -2.71 ± 0.29 |
| AAGUAGCAAUAUUACGUUCC | -1.67 ± 0.16 | -0.678 ± 0.16 |
| AAGUAGCAAUAUUACGUUCG | -1.35 ± 0.13 | -0.681 ± 0.17 |
| AAUAAGCAAUAUUACGAAAC | -3.3 ± 0.39 | -2.17 ± 0.49 |
| AAUAAGCAAUAUUACGACAC | -1.12 ± 0.16 | -0.462 ± 0.16 |
| AAUAAGCAAUAUUACGAGCU | -0.949 ± 0.1 | -0.237 ± 0.1 |
| AAUAAGCAAUAUUACGAGUC | -3.1 ± 0.28 | -1.48 ± 0.18 |
| AAUAAGCAAUAUUACGAUCC | -0.993 ± 0.21 | -0.374 ± 0.24 |

| Sequence | self-splicing fitness (ln) (30 °C) | self-splicing fitness (ln) (37 °C) |
| --- | --- | --- |
| AAUAAGCAAUAUUACGCGCU | -0.554 ± 0.17 | -0.562 ± 0.18 |
| AAUAAGCAAUAUUACGCGUU | -3.75 ± 0.15 | -1.8 ± 0.14 |
| AAUAAGCAAUAUUACGCUCA | -0.304 ± 0.091 | -0.155 ± 0.12 |
| AAUAAGCAAUAUUACGGCCA | -0.21 ± 0.12 | -0.615 ± 0.12 |
| AAUAAGCAAUAUUACGGCGG | -0.94 ± 0.093 | -0.865 ± 0.1 |
| AAUAAGCAAUAUUACGGUAU | -2.05 ± 0.099 | -1.04 ± 0.13 |
| AAUAAGCAAUAUUACGGUGU | -2.59 ± 0.12 | -0.711 ± 0.12 |
| AAUAAGCAAUAUUACGUAGU | -3.14 ± 0.15 | -2.15 ± 0.19 |
| AAUAAGCAAUAUUACGUGAG | -0.815 ± 0.065 | -0.198 ± 0.093 |
| AAUAAGCAAUAUUACGUGCA | -0.334 ± 0.062 | 0.0616 ± 0.079 |
| AAUAAGCAAUAUUACGUGUG | -1.05 ± 0.077 | -1.57 ± 0.1 |
| AAUCAGCAAUAUUACGAAGA | -0.26 ± 0.087 | 0.0829 ± 0.099 |
| AAUCAGCAAUAUUACGAAGG | -1.16 ± 0.071 | -0.793 ± 0.099 |
| AAUCAGCAAUAUUACGAUUC | -2.99 ± 0.2 | -3.73 ± 0.39 |
| AAUCAGCAAUAUUACGCAAU | -0.895 ± 0.067 | -0.0563 ± 0.093 |
| AAUCAGCAAUAUUACGCACU | -0.299 ± 0.077 | 0.326 ± 0.093 |
| AAUCAGCAAUAUUACGCCAA | -1.61 ± 0.14 | -0.855 ± 0.15 |
| AAUCAGCAAUAUUACGCGAA | -0.0302 ± 0.071 | 0.278 ± 0.098 |
| AAUCAGCAAUAUUACGCGUA | -0.281 ± 0.068 | 0.0946 ± 0.082 |
| AAUCAGCAAUAUUACGCUAC | -2.83 ± 0.23 | -2.22 ± 0.27 |
| AAUCAGCAAUAUUACGGACA | -0.225 ± 0.077 | -0.145 ± 0.091 |
| AAUCAGCAAUAUUACGGAGG | -1.01 ± 0.084 | -1.18 ± 0.1 |
| AAUCAGCAAUAUUACGGCAU | -0.109 ± 0.045 | 0.27 ± 0.059 |
| AAUCAGCAAUAUUACGGUUC | -2.32 ± 0.11 | -1.91 ± 0.17 |

| Sequence | self-splicing fitness (ln) (30 °C) | self-splicing fitness (ln) (37 °C) |
| --- | --- | --- |
| AAUCAGCAAUAUUACGUCCG | -1.59 ± 0.085 | -0.00732 ± 0.11 |
| AAUCAGCAAUAUUACGUGGG | -2.12 ± 0.11 | -1.09 ± 0.12 |
| AAUCAGCAAUAUUACGUGUC | -0.924 ± 0.053 | -0.319 ± 0.069 |
| AAUCAGCAAUAUUACGUGUU | -0.901 ± 0.056 | 0.209 ± 0.064 |
| AAUGAGCAAUAUUACGAAAA | -3.58 ± 0.4 | -2.1 ± 0.27 |
| AAUGAGCAAUAUUACGACUC | -1.05 ± 0.13 | -0.904 ± 0.15 |
| AAUGAGCAAUAUUACGAGGG | -4.5 ± 0.29 | -1.98 ± 0.17 |
| AAUGAGCAAUAUUACGAGUC | -4.32 ± 0.46 | -3.08 ± 0.47 |
| AAUGAGCAAUAUUACGAUUU | -1.24 ± 0.095 | -0.73 ± 0.1 |
| AAUGAGCAAUAUUACGCCAG | -3.99 ± 0.3 | -2.87 ± 0.47 |
| AAUGAGCAAUAUUACGCCGC | – | -1.7 ± 0.42 |
| AAUGAGCAAUAUUACGCGCU | – | -1.72 ± 0.37 |
| AAUGAGCAAUAUUACGCUAU | -2.84 ± 0.28 | -1 ± 0.16 |
| AAUGAGCAAUAUUACGGAGC | -3.43 ± 0.25 | -1.03 ± 0.44 |
| AAUGAGCAAUAUUACGGAUG | -3.35 ± 0.17 | -2.23 ± 0.22 |
| AAUGAGCAAUAUUACGGUAG | -4.54 ± 0.32 | -3.47 ± 0.24 |
| AAUGAGCAAUAUUACGGUGG | -3.48 ± 0.21 | -1.89 ± 0.24 |
| AAUGAGCAAUAUUACGUGGU | -2.41 ± 0.11 | -3.49 ± 0.23 |
| AAUGAGCAAUAUUACGUGUA | -3.35 ± 0.23 | -2.56 ± 0.21 |
| AAUGAGCAAUAUUACGUUCG | -1.74 ± 0.11 | -0.765 ± 0.12 |
| AAUUAGCAAUAUUACGAAAG | -3.12 ± 0.19 | -1.51 ± 0.18 |
| AAUUAGCAAUAUUACGAACA | -0.672 ± 0.16 | -0.784 ± 0.18 |
| AAUUAGCAAUAUUACGACAA | -1.79 ± 0.21 | 0.209 ± 0.24 |
| AAUUAGCAAUAUUACGACAC | -0.631 ± 0.11 | -0.0896 ± 0.14 |

| Sequence | self-splicing fitness (ln) (30 °C) | self-splicing fitness (ln) (37 °C) |
| --- | --- | --- |
| AAUUAGCAAUAUUACGACCC | – | 0.136 ± 0.36 |
| AAUUAGCAAUAUUACGACGU | 0.421 ± 0.095 | -0.3 ± 0.075 |
| AAUUAGCAAUAUUACGAGGG | -3.23 ± 0.23 | -2.93 ± 0.3 |
| AAUUAGCAAUAUUACGAGGU | -3.26 ± 0.2 | -3.02 ± 0.24 |
| AAUUAGCAAUAUUACGCAAA | -1.96 ± 0.18 | 0.00784 ± 0.17 |
| AAUUAGCAAUAUUACGCGCC | -0.89 ± 0.23 | -0.821 ± 0.34 |
| AAUUAGCAAUAUUACGGAAU | -2.33 ± 0.27 | -0.461 ± 0.18 |
| AAUUAGCAAUAUUACGGACA | -0.45 ± 0.19 | -1.28 ± 0.18 |
| AAUUAGCAAUAUUACGGCCC | -0.766 ± 0.18 | -0.626 ± 0.29 |
| AAUUAGCAAUAUUACGGCCU | -0.324 ± 0.097 | 0.38 ± 0.16 |
| AAUUAGCAAUAUUACGGCGA | -0.312 ± 0.1 | 0.113 ± 0.1 |
| AAUUAGCAAUAUUACGGGAA | -1.88 ± 0.32 | -1.88 ± 0.3 |
| AAUUAGCAAUAUUACGGGAC | – | -0.571 ± 0.23 |
| AAUUAGCAAUAUUACGGGUU | -1.4 ± 0.12 | -0.955 ± 0.12 |
| AAUUAGCAAUAUUACGGUGU | -2.48 ± 0.091 | -1.32 ± 0.098 |
| AAUUAGCAAUAUUACGUCGG | -2.72 ± 0.19 | -1.66 ± 0.21 |
| AAUUAGCAAUAUUACGUGAC | -2.05 ± 0.21 | -2.73 ± 0.23 |
| ACAAAGCAAUAUUACGAACA | -2.3 ± 0.12 | -0.578 ± 0.1 |
| ACAAAGCAAUAUUACGAACG | -1.1 ± 0.084 | 0.144 ± 0.093 |
| ACAAAGCAAUAUUACGAAGC | -3.71 ± 0.22 | -0.444 ± 0.15 |
| ACAAAGCAAUAUUACGAAUA | -3.62 ± 0.29 | -1.95 ± 0.17 |
| ACAAAGCAAUAUUACGAGAU | -4 ± 0.19 | -1.55 ± 0.097 |
| ACAAAGCAAUAUUACGAGCC | – | -1.97 ± 0.25 |
| ACAAAGCAAUAUUACGAUUA | -1.37 ± 0.11 | -0.593 ± 0.11 |
